This note sets out measurements from the supplement of paper PMC10567573.

B1: TSN (parent)
chain: FLAAEQDIREEIRKVVQSLEQTAR
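Also: lentivirally expressed fusions sorted by FACS into six bins by GFP to DsRed ratio, PSI derived from sequencing read proportions per bin multiplied by bin number.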

In this data set the parent is B1. As to the kind of experiment: protein stability index of a GFP-peptide fusion (GPS, HEK-293T) (PSI 1-6); higher = more stable. The following applies: c terminus: a fixed tail appended.
In the case of FLAAEQDIREEIRKVVQSAEQTAR [L19A], the protein stability index was 3.72.
The value for FLAAEQDIREEIRKVVQSWEQTAR [L19W] was 3.12.
The value for FLAAEQDIREEIRKVVQSEEQTAR [L19E] was 4.16; that for FLAAEQDIREEIRKVVQSSEQTAR [L19S] was 3.33; that for FLAAEQDIREEIRKVVQSHEQTAR [L19H] was 2.96.
For FLAAEQDIREEIRKVVKSLEQTAR [Q17K], the protein stability index was 2.52.
On to FLAAEQDIREEIRKVVLSLEQTAR [Q17L], for which the protein stability index stood at 2.42.
For FLAAEQDIREEIRKVVYSLEQTAR [Q17Y], the protein stability index worked out at 1.6.
Regarding FLAAEQDIREVIRKVVQSLEQTAR [E11V], the protein stability index was found to be 1.95.
The value for FLAAEQDIREKIRKVVQSLEQTAR [E11K] was 2.65.
As for FLAAEQDIREIIRKVVQSLEQTAR [E11I], the figure is 1.72.
The value for FLAAEQDIREFIRKVVQSLEQTAR [E11F] was 1.59.
As for FLAAEQDIREPIRKVVQSLEQTAR [E11P], the protein stability index amounted to 3.15.
As for FLAAEQQIREEIRKVVQSLEQTAR [D7Q], the figure is 1.3; as for FLAAEQYIREEIRKVVQSLEQTAR [D7Y], 2.44; as for FLAAEQVIREEIRKVVQSLEQTAR [D7V], 2.13.
With FLAAEQNIREEIRKVVQSLEQTAR [D7N], the protein stability index came out at 2.05.
In the case of FLAAEQRIREEIRKVVQSLEQTAR [D7R], the protein stability index was determined as 2.35.
For the variant FLAAEQFIREEIRKVVQSLEQTAR [D7F], the protein stability index is 2.52.
The value for FLKAEQDIREEIRKVVQSLEQTAR [A3K] was 2.13; that for FLQAEQDIREEIRKVVQSLEQTAR [A3Q] was 1.73.
The value for FLEAEQDIREEIRKVVQSLEQTAR [A3E] was 2.42; that for FLVAEQDIREEIRKVVQSLEQTAR [A3V] was 1.88; that for FLAAEQDIRMEIRKVVQSLEQTAR [E10M] was 1.88.
The value for FLAAEQDIRLEIRKVVQSLEQTAR [E10L] was 1.96.
FLAAEQDIREEIRKVVQSLEQQAR [T22Q]: the protein stability index stood at 2.1.
As to FLAAEQDIREEIRKVVQSLEQEAR [T22E], the protein stability index was found to be 2.48.
In the case of FLAAEQDIREEIRKVVQSLEQIAR [T22I], the protein stability index worked out at 2.61.
For FLAAEQDIREEIRKVVQSLEQKAR [T22K], the protein stability index turned out to be 1.95.
As for FLAAEQDIREEIRKVVQPLEQTAR [S18P], the figure is 2.3.
As for FLAAEQDIREEIRKVVQQLEQTAR [S18Q], the figure is 2.24; as for FLAAEQDIREEIRKVVQLLEQTAR [S18L], 2.22.
The value for FLAAEQDIIEEIRKVVQSLEQTAR [R9I] was 1.84.
FLAAEQDIEEEIRKVVQSLEQTAR [R9E]: the protein stability index was 1.69.
The value for FLAAEQDIVEEIRKVVQSLEQTAR [R9V] was 1.75.
As for FLAAEQDISEEIRKVVQSLEQTAR [R9S], the figure is 2.26.
As for FLAAEQDILEEIRKVVQSLEQTAR [R9L], the figure is 2.26; as for FLAAEQDIWEEIRKVVQSLEQTAR [R9W], 1.64; as for FLAAEQDIGEEIRKVVQSLEQTAR [R9G], 3.12.
With FLAAEQDVREEIRKVVQSLEQTAR [I8V], the protein stability index was 2.17.
The value for FLAAEQDDREEIRKVVQSLEQTAR [I8D] was 3.44; that for FLAAEQDSREEIRKVVQSLEQTAR [I8S] was 3.33.
FLAAEQDCREEIRKVVQSLEQTAR [I8C]: the protein stability index was determined as 2.56.
For FLAAEQDIREETRKVVQSLEQTAR [I12T], the protein stability index was 3.07.
Consider FLAAEQDIREEQRKVVQSLEQTAR [I12Q], for which the protein stability index came out at 4.06.
The value for FLAAMQDIREEIRKVVQSLEQTAR [E5M] was 2.79; that for FLAASQDIREEIRKVVQSLEQTAR [E5S] was 2.52.
Regarding FLAAYQDIREEIRKVVQSLEQTAR [E5Y], the protein stability index came out at 1.76.
As for FLAAEQDIREEIRKVVQSLEQTDR [A23D], the figure is 1.57; as for FLAAEQDIREEIRKVVQSLEQTCR [A23C], 1.99.
For FLAAEQDIREEIRKVVQSLEQTVR [A23V], the protein stability index turned out to be 2.13.
As for FLAMEQDIREEIRKVVQSLEQTAR [A4M], the figure is 1.69.
As for FLASEQDIREEIRKVVQSLEQTAR [A4S], the figure is 2.54; as for FLAAENDIREEIRKVVQSLEQTAR [Q6N], 1.91; as for FLAAEQDIREEIRPVVQSLEQTAR [K14P], 3.76.
As for FVAAEQDIREEIRKVVQSLEQTAR [L2V], the figure is 1.91; as for FAAAEQDIREEIRKVVQSLEQTAR [L2A], 2.19.
With FMAAEQDIREEIRKVVQSLEQTAR [L2M], the protein stability index came out at 1.96.
The value for FCAAEQDIREEIRKVVQSLEQTAR [L2C] was 1.82.
Take FLAAEQDIREEIRKVVQSLYQTAR [E20Y]: the protein stability index was 2.07.
The value for FLAAEQDIREEIRKVVQSLLQTAR [E20L] was 2.13; that for FLAAEQDIREEIRKVVQSLNQTAR [E20N] was 2.08.
The value for FLAAEQDIREEIRKVVQSLTQTAR [E20T] was 2.3; that for FLAAEQDIREEIRKVVQSLETTAR [Q21T] was 1.92; that for FLAAEQDIREEIRKVVQSLEYTAR [Q21Y] was 1.64.
Take FLAAEQDIREEIRKVVQSLEFTAR [Q21F]: the protein stability index amounted to 1.81.
The value for FLAAEQDIREEIRKVVQSLEGTAR [Q21G] was 2.08.
As for FLAAEQDIREEIRKVVQSLELTAR [Q21L], the protein stability index worked out at 1.91.
The value for RLAAEQDIREEIRKVVQSLEQTAR [F1R] was 2.79; that for VLAAEQDIREEIRKVVQSLEQTAR [F1V] was 2.62.
As for NLAAEQDIREEIRKVVQSLEQTAR [F1N], the figure is 3.17; as for ALAAEQDIREEIRKVVQSLEQTAR [F1A], 2.35; as for MLAAEQDIREEIRKVVQSLEQTAR [F1M], 2.39.
As for DLAAEQDIREEIRKVVQSLEQTAR [F1D], the figure is 2.49; as for LLAAEQDIREEIRKVVQSLEQTAR [F1L], 2.36.
For HLAAEQDIREEIRKVVQSLEQTAR [F1H], the protein stability index turned out to be 2.5.
The value for FLAAEQDIREEIAKVVQSLEQTAR [R13A] was 1.94; that for FLAAEQDIREEIFKVVQSLEQTAR [R13F] was 1.55; that for FLAAEQDIREEINKVVQSLEQTAR [R13N] was 2.16.
The value for FLAAEQDIREEIRKIVQSLEQTAR [V15I] was 2.19; that for FLAAEQDIREEIRKKVQSLEQTAR [V15K] was 3.37.
As for FLAAEQDIREEIRKEVQSLEQTAR [V15E], the figure is 4.34; as for FLAAEQDIREEIRKSVQSLEQTAR [V15S], 3.07.
Regarding FLAAEQDIREEIRKLVQSLEQTAR [V15L], the protein stability index is 2.48.
The value for FLAAEQDIREEIRKYVQSLEQTAR [V15Y] was 3.44.
As for FLAAEQDIREEIRKCVQSLEQTAR [V15C], the figure is 2.56; as for FLAAEQDIREEIRKVVQSLEQTAK [R24K], 1.7; as for FLAAEQDIREEIRKVVQSLEQTAN [R24N], 2.21.
In the case of FLAAEQDIREEIRKVVQSLEQTAG [R24G], the protein stability index was determined as 2.18.
For the variant FLAAEQDIREEIRKVVQSLEQTAH [R24H], the protein stability index amounted to 1.47.
For FLAAEQDIREEIRKVRQSLEQTAR [V16R], the protein stability index is 2.15.
The value for FLAAEQDIREEIRKVKQSLEQTAR [V16K] was 2.38.
The value for FLAAEQDIREEIRKVGQSLEQTAR [V16G] was 3.36; that for FLAAEQDIREEIRKVNQSLEQTAR [V16N] was 3.03.
